Measurements reported in the nanobody polyreactivity screen of Harvey et al. (2022).

test: yeast display, Sf9 membrane polyspecificity reagent, FACS + sequencing; frameworks hold sequencing errors
Outline: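 Synthetic nanobody libraries on Saccharomyces cerevisiae BJ5465 were galactose-induced for 36–48 hours, stained 1 hour at 4 °C with 10% biotinylated, detergent-solubilized Sf9 membrane reagent and enriched on streptavidin microbeads. FACS then separated cells into low and high (top ~1%) gates by anti-HA (expression) and streptavidin (reagent binding) fluorescence. Genes were colony-PCR amplified, MiSeq 2 × 250 sequenced and CDR-length filtered. A clone's polyreactivity label is that of its gate of origin.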

| Sequence | polyreactivity (PSR sort gate) |
| --- | --- |
| QVQLVESGGGLVQAGGSLRLSCAASGRTFKPNAMGWYRQAPGKERELVASINDVGSTNYADSVKGRFTISRDNAKNTVYLQMNSLKPEDTAVYYCAADPYWYPYYGYYILYDYWGQGTHVTVSS | low polyreactivity |
| QVQLVESGGGLVQAGGSLRLSCAASGRTFKRNAMGWYRQAPGKERELVAGISTGGSTNYADSVKGRFTISRDNAKNTVYLQMNSLKPEDTAVYYCAARYRTDWTPGYHVGYYYWGQGTQVTVSS | high polyreactivity |
| QVQLVESGGGLVQAGGSLRLSCAASGRTFKRNAMGWYRQAPGKERELVASISWRGGSTYYADSVKGRFTISRDNAKNTVFLQMKSLKPEDTAVYYCAAQYPVWRRLYRTWLVAEVDYWGQGTQVTVSS | low polyreactivity |
| QVQLVESGGGLVQAGGSLRLSCAASGRTFKRYAMGWYRQAPGKERELVAAITFSGGSTYYADSVKGRFTISRDNAKNTVYLQMNSLKPADTAVYYCAAVGEHYPWDYYWGQGTQVTVSS | high polyreactivity |
| QVQLVESGGGLVQAGGSLRLSCAASGRTFKRYAMGWYRQAPGKERELVARITYSGARTYYADSVKGRFTISRDNAKNTVYLQMNSLKPEDTAVYYCAAQQYWTSQYFRSATFDYWGQGTQVTVSS | high polyreactivity |
| QVQLVESGGGLVQAGGSLRLSCAASGRTFKRYAMGWYRQAPGNERELVAAIRRGGITNYADSVKGRFTISRDNAKNTVYLQMNSLKPEDTAVYYCAKDGVTYPYSYEYDYWGLGTQVTVSS | low polyreactivity |
| QVQLVESGGGLVQAGGSLRLSCAASGRTFKVYAMGWYRQAPGKERELVASINRGSSTYADSVKGRFTISRDNAKNTVYLQMNSLKPEDTAVYYCAARWWRQSRYYYWGQGTQVTVSS | high polyreactivity |
| QVQLVESGGGLVQAGGSLRLSCAASGRTFKYKAMGWYRQAPGKERELVDAISSDDSTNYADSVKGRFTISRDKAQNTVYLQMNSLKPEDTAVYYCAARYGYSKWPDRVQAYKHDYWGQGTQVTVSS | low polyreactivity |
| QVQLVESGGGLVQAGGSLRLSCAASGRTFKYNAIGWYRQAPGKERELVAVISRSTGRTYYADSVKGRFTISRDNAKNTVYLQMNSLKPEDTAVYYCNRVSRQYYYQRGFEYDYWGQGTQVTVSS | high polyreactivity |
| QVQLVESGGGLVQAGGSLRLSCAASGRTFKYNAMGWYRQAPGKERELVAAITSSGGRTYYADSVKGRFTISRDNAKNTVYLQMNSLKPEDTAVYYCAARGYPSDYKYEYNYWGQGTQVTVSS | high polyreactivity |
| QVQLVESGGGLVQAGGSLRLSCAASGRTFKYNAMGWYRQAPGKRKELVAAISSGGSTYYADSVKGRFTISRDNAKNTVYLQMNSLKPEDTAVYYCAVRNTKSYWFGYWGQGTQVTVSS | high polyreactivity |
| QVQLVESGGGLVQAGGSLRLSCAASGRTFKYYALGWYRQAPGKERELVAAISNGGRTNYADSVKGRFTISRDNAKNTVYLQMNSLKPEDTAFYYCAKRTFYFSDYDYWGQGTQVTVSS | high polyreactivity |
| QVQLVESGGGLVQAGGSLRLSCAASGRTFKYYALGWYRQAPGKERELVAAISTRGGRTYADSVKGRFTISRDNAKNTVYLQMNSLKPEDTAVYYCARDSNVGHHGFDYWGQGTQVTVSS | low polyreactivity |
| QVQLVESGGGLVQAGGSLRLSCAASGRTFKYYAMGWYRQAPGKERELVAAISRRGGRTYYADSVKGRFTISRDNAKNTVYLQMNSLKPEDTAVYYCAAVFETGAGGFYYTLQYDSWGQGTQVTVSS | high polyreactivity |
| QVQLVESGGGLVQAGGSLRLSCAASGRTFKYYAMGWYRQAPGKERELVAAISRSGGTTYYADSVKGRFTISRDNAKNTVYLQMNSLKPEDTAVYYCAARCATRSRYDYWGQGTQVTVSS | high polyreactivity |
| QVQLVESGGGLVQAGGSLRLSCAASGRTFKYYAMGWYRQAPGKERELVAAISSGSSTYYADSVKGRFTISRDNAKNTVYLQMNSLKPEDTAVYYCNAVYKLSYLLSGTSEYYTYDYWGQGTQVTVSS | high polyreactivity |
| QVQLVESGGGLVQAGGSLRLSCAASGRTFKYYAMGWYRQAPGKERELVAAISYNGGSTFYADSVKGRFTFSRDNAKNTVYLQMNSLKPEDTAVYYCAAGPRGTGKYYWGQGTQVTVSS | high polyreactivity |
| QVQLVESGGGLVQAGGSLRLSCAASGRTFKYYAMGWYRQAPGKERELVASISNGGNTNYADSVKGRFTISRDNAKNTVYLQMNSLKPEDTAVYYCAAGYVVATRYDYWGQGTQVTVSS | high polyreactivity |
| QVQLVESGGGLVQAGGSLRLSCAASGRTFKYYAMGWYRQAPGKERELVASITRGSSTNYADSVKGRFTISRDNAKNTVYLQMNSLKPEDTAVYYCATGPGRALPRPTSAYYYWGQGTQVTVSS | high polyreactivity |
| QVQLVESGGGLVQAGGSLRLSCAASGRTFKYYTMGWYRQAPGKERELVAAITSDGSTNYADSVKGRFTISRDNAKNTVYLQMNSLKPEDTAVYYCAAEIRWVFLSYEYWGQGTQVTVSS | high polyreactivity |
| QVQLVESGGGLVQAGGSLRLSCAASGRTFLAYAMGWYRQAPGKERELVAAISKSGGRTYYADSVKGRFTISRDNAKNTVYLQMNSLKPEDTAVYYCAADKQAYVTDDYWGQGTQVTVSS | high polyreactivity |
| QVQLVESGGGLVQAGGSLRLSCAASGRTFLGYAMGWYRQAPGKERELVAAITSGTRTYADSVKGRFTISRDNAKYTVYLQMNSLKPEDTAVYYCAALRWQYRLYSYSFRSGRFDYWGQGTQVTVSS | low polyreactivity |

| Sequence | polyreactivity (PSR sort gate) |
| --- | --- |
| QVQLVESGGGLVQAGGSLRLSCAASGRTFLGYAMGWYRQAPGKERELVAAITWRGGITYYADSVKGRFTISRDNAKNTVYLQMNSLKPEDTAVYYCARDYGQYGWYRYGRTFDNWGQGTQVTVSS | high polyreactivity |
| QVQLVESGGGLVQAGGSLRLSCAASGRTFLHNAMGWYRQAPGKERELVAAISSRGGSTYYADSVKGRFTISRDNAKNTVYLQMNSLKPEDTAVYYCAAYIYGTYYYWGQGTQVTVSS | high polyreactivity |
| QVQLVESGGGLVQAGGSLRLSCAASGRTFLHYAMGWYRPAPGKERELVAAMSWSGGSTNYADSVKGRFTISRDNAKNTVYLQMNSLKPEDTAVYYCAADFYWVIYSTVEYGYWGQGTQVTVSS | low polyreactivity |
| QVQLVESGGGLVQAGGSLRLSCAASGRTFLINAMGWYRQAPGKERELVAAITQSGGSTYYADSVKGRFTISRDNAKNTVYLQMNSLKPEDTAVYYCAADVPGVYPYDYWGQGTQVTVSS | low polyreactivity |
| QVQLVESGGGLVQAGGSLRLSCAASGRTFLIYAMGWYRQAPRKEREFVAAIRGRGGSTYYADSVKGRFTISRDNAKNTVYLQMNSLKPEDTAVYYCAATFPGRSFRIRGYGYDYWGQGTQVTVSS | high polyreactivity |
| QVQLVESGGGLVQAGGSLRLSCAASGRTFLNYAMGWYRQAPGKEREFVAAITWRVGTTYYADSVKGRFTISRDNAKNTVYLQMNSLKPEDTAVYYCAARRSVGGYGYWGQGTQVTVSS | high polyreactivity |
| QVQLVESGGGLVQAGGSLRLSCAASGRTFLPNAMGWYRQAPGKDRELVAVITSGGSTNYADSVKGRFTISRDNAKNTVYLQMNSLKPEDTAVYYCAARRWSSSQGHWGKSAGYGYWGQGTQVTVSS | low polyreactivity |
| QVQLVESGGGLVQAGGSLRLSCAASGRTFLPNAMGWYRQAPGKERELVAVITSGGSTNYADSVKGRFTISRDNAKNTVYLQMKSLKPEDTAVYYCAARRWSSSQGHWGKSAGYGYWGQGTQVTVSS | low polyreactivity |
| QVQLVESGGGLVQAGGSLRLSCAASGRTFLPNAMGWYRQAPGKERELVAVITSGGSTNYADSVKGRFTISRDNAKNTVYLQMNSLKPEDTAVYYCAADWWRVEMEYWGQGTQVTVSS | low polyreactivity |
| QVQLVESGGGLVQAGGSLRLSCAASGRTFLPNAMGWYRQAPGKERELVAVITSGGSTNYADSVKGRFTISRDNAKNTVYLQMNSLKPEDTAVYYCAARRWSSSQGHWGKSAGYGYLGQGTQVTVSS | low polyreactivity |
| QVQLVESGGGLVQAGGSLRLSCAASGRTFLPNAMGWYRQAPGKERELVAVITSGGSTNYADSVKGRFTISRDNAKNTVYLQMNSLKPEDTAVYYCAARRWSSSQGHWGKSAGYGYWGQGTQVTVSS | low polyreactivity |
| QVQLVESGGGLVQAGGSLRLSCAASGRTFLPYAMGWYRQAPGKEWELVAAIDSSGGSTYYADSVKGRFTISRDNAKNTVYLQMNSLKPEDTAVYYCAADLYSSYYLYDSWGQGTQVTVSS | low polyreactivity |
| QVQLVESGGGLVQAGGSLRLSCAASGRTFLRNTMGWYRQAPGKERELVAAISRSGATTYYADSVKGRFTISRDNAKNTVYLQMNSLKPADTAVYYCAALGQGRTSATSFVDYEYWGQGTQVTVSS | high polyreactivity |
| QVQLVESGGGLVQAGGSLRLSCAASGRTFLRYAMGWYRQAPGKERELVAAISGSGGSTYYADSVKGRFTISRDNAKNTVYLQMNSLKPEDTAVYYCATRFWVSFKAREYWGQGTQVTVSS | high polyreactivity |
| QVQLVESGGGLVQAGGSLRLSCAASGRTFLSYAMGWSRQAPVTERELVATITRRGGSTYYADSVKGRFTISRDNAKNTVYLQMNSLKPEDTAVSYCAAYYRQYSYSEFGYWGQGTQVTVSS | high polyreactivity |
| QVQLVESGGGLVQAGGSLRLSCAASGRTFLSYMGWYRQAPGKERELVAISRYGTSTYYADSVKGRFTISRDNAKNTVYLQMNSLKPEDTAVFYCAAEVLRDGWWGYYYWGQGTQVTVSS | high polyreactivity |
| QVQLVESGGGLVQAGGSLRLSCAASGRTFLTNAMGWYRQAPGKERELVAAITSSGGNTYYADSVKGRFTISRDNAKNTVYLQMNSLKPEDTAVYYCAAPGYVWYGGRWVYRYYYWGQGTQVTVSS | high polyreactivity |
| QVQLVESGGGLVQAGGSLRLSCAASGRTFLTNTMGWYRQAPGKERELVAAISSGGSTKYADSVKGRFTISRDNAKNTVYLQMNSLKPEDTAVYYCAATGWRYGYKYYYWGQGTQVNVSS | high polyreactivity |
| QVQLVESGGGLVQAGGSLRLSCAASGRTFLVFAMGWYRQAPGKERELVAAITRDDNTNYADSVKGRFTISRDNAKNTVYLQMNSLKPEDTAVDYCAADALVYRLGNYYFIFDYWGQGTEVTVSS | low polyreactivity |
| QVQLVESGGGLVQAGGSLRLSCAASGRTFLVNAMGWYRQAPGKEREFVAAITSRSSGSTYYADSVTGRFTISRDKAKNTVYFQLNSQKPEDTAVYYCAARGHLRYESDYWGQGTQVTVSS | high polyreactivity |
| QVQLVESGGGLVQAGGSLRLSCAASGRTFLVNAMGWYRQAPGKERELVAAITANGGNTYYADSVKGRFTISRDNAKNTVYLQMNSLKPEDTAVYYCAKLSHRGQSTGVDYWGQGTQVTVSS | low polyreactivity |
